Where a chain is given by its changes, count along the chain named. In names and notes the source's numbering stands. One block for each binder: values may come before it.
Key:
[1] = molecular target: T1, human PD-L1 (human, UniProt Q9NZQ7 19-290); experiment: flow cytometry, CHO cells stably expressing huPD-L1, 33.3 nM, PE anti-human Fc
T1 construct: whole, on cells; also called huPD-L1
T1 sequence (Q9NZQ7 19-290): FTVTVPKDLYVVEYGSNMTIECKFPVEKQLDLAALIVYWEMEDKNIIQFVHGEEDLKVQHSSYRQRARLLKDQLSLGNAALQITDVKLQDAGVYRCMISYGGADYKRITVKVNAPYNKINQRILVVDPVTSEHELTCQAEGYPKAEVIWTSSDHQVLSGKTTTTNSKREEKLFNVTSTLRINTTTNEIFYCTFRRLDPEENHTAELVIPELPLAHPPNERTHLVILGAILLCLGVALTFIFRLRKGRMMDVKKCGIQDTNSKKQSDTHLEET

[2] = molecular target: T2, human CD28 (human, UniProt P10747 19-220); experiment: flow cytometry, Jurkat/IL2 reporter cells (endogenous CD28), 33.3 nM, PE anti-human Fc
T2 construct: whole, on cells; Endogenous CD28 of Jurkat/IL2 reporter cells

[3] = molecular target: T3, human CTLA4 (huCTLA4), full-length, stably expressed on CHO cells (human, UniProt P16410 36-223); experiment: flow cytometry, CHO cells expressing huCTLA4
T3 construct: whole, on cells
T3 sequence (P16410 36-223): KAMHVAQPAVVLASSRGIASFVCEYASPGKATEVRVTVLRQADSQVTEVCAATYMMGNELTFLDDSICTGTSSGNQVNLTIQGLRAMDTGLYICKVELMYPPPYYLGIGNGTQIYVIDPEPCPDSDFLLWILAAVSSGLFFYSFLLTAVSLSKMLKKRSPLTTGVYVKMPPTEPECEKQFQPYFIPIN

[4] = molecular target: T4, human PD-L1 (huPD-L1), full-length, stably expressed on CHO cells (human, UniProt Q9NZQ7 19-290); experiment: flow cytometry, CHO cells expressing huPD-L1
T4 construct: whole, on cells
T4 sequence (Q9NZQ7 19-290): as the sequence (Q9NZQ7 19-290) above

[5] = molecular target: T4, human PD-L1 (huPD-L1), full-length, …; experiment: flow cytometry; MFI on PD-L1 CHO cells over MFI on Jurkat cells (CD28)
[6] = molecular target: T3, human CTLA4 (huCTLA4), full-length, …; experiment: flow cytometry, CHO cells expressing huCTLA4; MFI against WT CD80 of the table
[7] = molecular target: T4, human PD-L1 (huPD-L1), full-length, …; experiment: flow cytometry, CHO cells expressing huPD-L1; MFI against WT CD80 of the table
[8] = molecular target: T5, human CTLA-4 (human, UniProt P16410 36-223); experiment: flow cytometry, CHO cells stably expressing huCTLA4, 33.3 nM, PE anti-human Fc
T5 construct: whole, on cells; also called huCTLA4
T5 sequence (P16410 36-223): as the sequence (P16410 36-223) above

[9] = molecular target: T6, human PD-L1 (human, UniProt Q9NZQ7 19-290); experiment: flow cytometry MFI relative to WT CD80 IgV-Fc, CHO/huPD-L1 cells, 33.3 nM
T6 construct: whole, on cells; CHO cells stably expressing huPD-L1; also called huPD-L1
T6 sequence (Q9NZQ7 19-290): as the sequence (Q9NZQ7 19-290) above

[10] = molecular target: T7, human CTLA-4 (human, UniProt P16410 36-223); experiment: flow cytometry MFI relative to WT CD80 IgV-Fc, CHO/huCTLA-4 cells, 33.3 nM
T7 construct: whole, on cells; CHO cells stably expressing huCTLA4; also called huCTLA4
T7 sequence (P16410 36-223): as the sequence (P16410 36-223) above

[11] = molecular target: T8, human CD28 (human, UniProt P10747 19-220); experiment: flow cytometry MFI relative to WT CD80 IgV-Fc, Jurkat cells (CD28), 33.3 nM
T8 construct: whole, on cells; Jurkat/IL2 reporter cells, which endogenously express CD28

[12] = molecular target: T6, human PD-L1; experiment: flow cytometry, MFI on CHO/huPD-L1 cells divided by MFI on Jurkat cells (CD28), 33.3 nM
[13] = molecular target: T6, human PD-L1; experiment: flow cytometry, CHO cells stably expressing huPD-L1, 33.3 nM Fc fusion, PE anti-human Fc
[14] = molecular target: T7, human CTLA-4; experiment: flow cytometry, CHO cells stably expressing huCTLA-4, 33.3 nM Fc fusion, PE anti-human Fc
[15] = molecular target: T8, human CD28; experiment: flow cytometry, Jurkat/IL2 reporter cells (endogenous CD28), 33.3 nM Fc fusion, PE anti-human Fc
[16] = molecular target: T9, human PD-L1 (CD274), full-length, expressed on the surface of CHO cells (human, UniProt Q9NZQ7 19-290); experiment: flow cytometry on PD-L1 CHO cells; MFI against WT CD80 ECD-Fc (R&D)
T9 construct: also called huPD-L1; B7-H1
T9 sequence (Q9NZQ7 19-290): as the sequence (Q9NZQ7 19-290) above

[17] = molecular target: T10, human CTLA-4 (CTLA4), full-length, expressed on the surface of CHO cells (human, UniProt P16410 36-223); experiment: flow cytometry on CTLA-4 CHO cells; MFI against WT CD80 ECD-Fc (R&D)
T10 construct: also called huCTLA4
T10 sequence (P16410 36-223): as the sequence (P16410 36-223) above

[18] = molecular target: T9, human PD-L1 (CD274), full-length, …; experiment: flow cytometry; MFI on PD-L1 CHO cells over MFI on Jurkat cells (CD28)
[19] = molecular target: T11, human CD28, endogenously expressed on Jurkat/IL2 reporter cells (human, UniProt P10747 19-220); experiment: flow cytometry on Jurkat cells (CD28); MFI against WT CD80 ECD-Fc (R&D)
T11 construct: This is the endogenous CD28 of Jurkat cells

[20] = molecular target: T9, human PD-L1 (CD274), full-length, …; experiment: flow cytometry, CHO cells stably expressing human PD-L1, 33.3 nM Fc fusion, PE anti-human Fc
[21] = molecular target: T10, human CTLA-4 (CTLA4), full-length, …; experiment: flow cytometry, CHO cells stably expressing human CTLA-4, 33.3 nM Fc fusion, PE anti-human Fc
[22] = molecular target: T11, human CD28, endogenously expressed on …; experiment: flow cytometry, Jurkat/IL2 reporter cells (endogenous CD28), 33.3 nM Fc fusion, PE anti-human Fc

B3: E35D/M47I/T62S/L85Q/E88D CD80 IgV-Fc (Fc fusion, not shown: a dimerising Fc or GST)
chain: VIHVTKEVKEVATLSCGHNVSVEELAQTRIYWQKDKKMVLTMMSGDINIWPEYKNRTIFDISNNLSIVILALRPSDEGTYECVVQKYDKDAFKREHLAEVTLSVKAD
MFI at 33.3 nM [8]: 8910 MFI
MFI at 33.3 nM [1]: 8420 MFI

B4: variant CD80 IgV-Fc H18Y/E35D/M38I/M47L/V68M/L85M (Fc fusion, not shown: small tags and cut ends; a dimerising Fc or GST)
chain: B3 chain with H18Y, M38I, I47L, S62T, V68M, Q85M, D88E
MFI at 33.3 nM [4]: 3590 MFI
Ratio of PDL1:CD28 [5]: 215 ratio
Fold change to WT CD80 [7]: 69.7 fold

B8: variant CD80 IgV-Fc E35D/M47V/A71G/L85M/L97Q (Fc fusion, not shown: a dimerising Fc or GST)
chain: B3 chain with I47V, S62T, A71G, Q85M, D88E, L97Q
Fold change to WT [16]: 7.77 fold
Fold change to WT CD80 [17]: 1.34 fold
Ratio of PDL1:CD28 [18]: 182 ratio
Fold change to WT [19]: 0.04 fold
MFI at 33.3 nM [20]: 61700 MFI
MFI at 33.3 nM [21]: 239000 MFI
MFI at 33.3 nM [22]: 339 MFI

B10: variant CD80 IgV-Fc E24D/E35D/M47L/V68M/E95V/L97Q (Fc fusion, not shown: small tags and cut ends; a dimerising Fc or GST)
chain: B3 chain with E24D, I47L, S62T, V68M, Q85L, D88E, E95V, L97Q
MFI at 33.3 nM [3]: 15500 MFI
MFI at 33.3 nM [4]: 18600 MFI
Ratio of PDL1:CD28 [5]: 1270 ratio
Fold change to WT CD80 [6]: 8.8 fold
Fold change to WT CD80 [7]: 362 fold

Further lines, results first:

MFI at 33.3 nM [1]: 14500 MFI
MFI at 33.3 nM [2]: 1900 MFI
B1: H18Y/E35D/M47I/V68M/A71G/R94L CD80 IgV-Fc (Fc fusion, not shown: a dimerising Fc or GST)
chain: B3 chain with H18Y, S62T, V68M, A71G, Q85L, D88E, R94L

MFI at 33.3 nM [3]: 107 MFI
MFI at 33.3 nM [4]: 16500 MFI
Ratio of PDL1:CD28 [5]: 1110 ratio
Fold change to WT CD80 [6]: 0.1 fold
Fold change to WT CD80 [7]: 320 fold
B2: variant CD80 IgV-Fc Q33R/E35D/M38I/M47L/V68M (Fc fusion, not shown: small tags and cut ends; a dimerising Fc or GST)
chain: B3 chain with Q33R, M38I, I47L, S62T, V68M, Q85L, D88E

Fold change to WT CD80 [9]: 393 fold
Fold change to WT CD80 [10]: 17.1 fold
Fold change to WT CD80 [11]: 31.6 fold
Ratio of PDL1:CD28 [12]: 20.1 ratio
MFI at 33.3 nM [13]: 64900 MFI
MFI at 33.3 nM [14]: 23600 MFI
MFI at 33.3 nM [15]: 3230 MFI
B5: variant CD80 IgV-Fc (inert) H18Y/E35D/M47V/V68M/A71G (Fc fusion)
chain: B3 chain with H18Y, I47V, S62T, V68M, A71G, Q85L, D88E
notes: Fc fusions are dimeric by the general description; not shown: inert human IgG1 Fc

Fold change to WT [16]: 9.76 fold
Fold change to WT CD80 [17]: 0.1 fold
Ratio of PDL1:CD28 [18]: 255 ratio
Fold change to WT [19]: 0.04 fold
MFI at 33.3 nM [20]: 77500 MFI
MFI at 33.3 nM [21]: 18100 MFI
MFI at 33.3 nM [22]: 305 MFI
B6: variant CD80 IgV-Fc E35D/M47V/T62A/A71G/V83A/Y87H/L97M (Fc fusion, not shown: a dimerising Fc or GST)
chain: B3 chain with I47V, S62A, A71G, V83A, Q85L, Y87H, D88E, L97M

MFI at 33.3 nM [3]: 15000 MFI
MFI at 33.3 nM [4]: 18600 MFI
Ratio of PDL1:CD28 [5]: 1300 ratio
Fold change to WT CD80 [6]: 8.5 fold
Fold change to WT CD80 [7]: 361 fold
B7: variant CD80 IgV-Fc E35D/M47L/V68M/E95V/L97Q (Fc fusion, not shown: small tags and cut ends; a dimerising Fc or GST)
chain: B3 chain with I47L, S62T, V68M, Q85L, D88E, E95V, L97Q

Fold change to WT [16]: 15.3 fold
Fold change to WT CD80 [17]: 0.97 fold
Ratio of PDL1:CD28 [18]: 407 ratio
Fold change to WT [19]: 0.04 fold
MFI at 33.3 nM [20]: 122000 MFI
MFI at 33.3 nM [21]: 173000 MFI
MFI at 33.3 nM [22]: 299 MFI
B9: variant CD80 IgV-Fc H18Y/E35D/V68M/L97Q (Fc fusion, not shown: a dimerising Fc or GST)
chain: B3 chain with H18Y, I47M, S62T, V68M, Q85L, D88E, L97Q

Reference: patent US20210130436A1 (published 2021)
